The text below walks through data of patent publication US20210238298A1 (ALLIGATOR BIOSCIENCE, published 2021).

Experiment [1] concerns the target T1, soluble murine CTLA-4 (R&D systems) (murine, UniProt P09793 36-162).
T1 construct: Bought
The experiment can be described thus: not described. Here is the method:
In brief, 96-well flat bottom plate high binding plates (Greiner #655074) were coated with human CTLA-4 (Fitzgerald) incubating overnight at 4° C.
The sample (exemplary CD86 mutant) was pre-incubated at room temperature for 1 hour with soluble biotinylated human CTLA4 (Fitzgerald #30R-CD152) or soluble murine CTLA-4 (R&D systems) at different concentrations (serial dilutions ¼ from 30000 to 0.3 ng/ml).
The mixture was then added to the blocked wells in the ELISA plate. Detection was performed with Streptavidin-HRP (Pierce, #21126) and the plates were subsequently developed using SuperSignal Pico Chemiluminescent substrate (Thermo Scientific, #37069) and detected with Envision reader (Perkin Elmer).

Experiment [2] has as its target T2, CTLA4-Fc (Fitzgerald, #30R-CD152) (human, UniProt P16410 38-152).
T2 construct: Bought; also called human CTLA-4 (Fitzgerald); biotinylated-CTLA4; not shown: Fc part of the bought fusion, not described
The experiment can be described thus: ELISA on coated CTLA4-Fc and CD28-Fc. The method, then:
96-well flat bottom high binding plates (Greiner, #655074) were coated with either CTLA4-Fc (Fitzgerald, #30R-CD152) or CD28-Fc (R&D systems, 342-CD) by incubating overnight at 4° C. […] The plates were washed again and sample or controls (serially diluted ⅕ from 200-0.001 μg/ml) were added to the wells. The samples were incubated for 1 h at room temperature and then washed. Detection antibody, goat-anti-human IgG Fcγ-HRP (Jackson, #109-035-098) was added and the plates were subsequently developed using SuperSignal Pico Chemiluminescent substrate (Thermo Scientific, #37069) and detected with an Envision reader (Perkin Elmer). EC50 values were calculated for both CTLA4 and CD28. The binding ratio (EC50 binding ratio=[EC50 for CD28]÷[EC50 for CTLA-4]) was calculated for each polypeptide and is shown in Table 1.1.

In experiment [3] the target is T2, CTLA4-Fc (Fitzgerald, #30R-CD152). Briefly: SPR on immobilised CTLA4-Fc and CD28-Fc. Here is the method:
Either CTLA4-Fc (Fitzgerald, #30R-CD152) or CD28-Fc (R&D Systems, 342-CD) was immobilized to the Biacore™ sensor chip, CM5, using conventional amine coupling. The CD86 mutant molecules and controls (serially diluted ½ 100-1.5 nM) were analyzed for binding in HBS-P (GE, BR-1003-68) at a flow rate of […]. The association was followed for 3 minutes and the dissociation for 10 minutes. Regeneration was performed twice using 5 mM NaOH for 30 seconds. The kinetic parameters and the affinity constants were calculated using BIAevaluation 4.1 software (Table 1.3).

In experiment [4] the target is T3, murine OX40 (murine, UniProt P47741 20-211, limits assumed).
T3 sequence (looked up): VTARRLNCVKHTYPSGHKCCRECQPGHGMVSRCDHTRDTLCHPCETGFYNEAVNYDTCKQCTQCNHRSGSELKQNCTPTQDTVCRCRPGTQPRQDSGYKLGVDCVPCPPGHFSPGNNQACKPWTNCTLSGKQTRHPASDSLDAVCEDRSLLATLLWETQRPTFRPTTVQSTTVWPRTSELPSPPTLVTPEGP
The experiment can be described thus: ELISA. In general terms: ELISA stands for enzyme-linked immunosorbent assay.

The target of experiment [5] is T4, CD40 (Ancell) (UniProt P25942 21-193).
T4 construct: also called CD40-Fc (Ancell #504-820); not shown: Fc part, not described
Briefly: ELISA.

The target of experiment [6] is T5, recombinant human CD137-Fc (R&D #838-4B) (human, UniProt Q07011 24-186).
T5 construct: Bought; also called Human CD137 (R&D systems); CD137 (R&D Systems); not shown: Fc part, not described
Briefly: ELISA.

For experiment [7], the target named is T6, OX40 chimera 1548: human OX40 with mouse module 3 and domains 4A and 4B (aa 108-167), on FreeStyle 293-F cells (human; mouse, UniProt P47741 104-165).
T6 construct: domain: module 3, 4A and 4B; Limits derived as for 1544
T6 sequence: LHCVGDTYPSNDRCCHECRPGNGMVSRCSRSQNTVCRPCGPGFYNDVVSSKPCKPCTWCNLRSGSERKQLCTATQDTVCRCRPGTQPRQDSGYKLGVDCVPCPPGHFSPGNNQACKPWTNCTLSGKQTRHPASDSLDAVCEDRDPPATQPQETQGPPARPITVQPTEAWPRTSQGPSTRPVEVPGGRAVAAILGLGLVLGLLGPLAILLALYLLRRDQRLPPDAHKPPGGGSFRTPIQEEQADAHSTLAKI
Briefly: flow cytometry, 293-F transfectants. The method, then: (§1) The mouse/human chimeras were transiently transfected into FreeStyle 293-F cells (Invitrogen), incubated 48 hours in FreeStyle 293 expression medium (Invitrogen) 37 C, 8% CO₂, 135 rpm. The transfected cells were incubated with human OX40 antibodies, human OX40L (hOX40L, RnD Systems), mouse OX40L (mOX40L, RnD Systems) and controls for 30 min 4° C. and then detected with a-huIgG-PE (Jackson Immunoresearch) 30 min 4° C. Cells were analyzed with FACS Verse (BD Biosciences). Binding to the different chimeric constructs were calculated as relative (mean fluorescence intensity) MFI compared to the binding of the isotype control.

The target in experiment [8] is T7, OX40 chimera 1549: human OX40 with mouse domains 1A and 4B and non-annotated extracellular region (aa 30-65 … (human; mouse, UniProt P47741 26-61; P47741 125-211).
T7 construct: domain: 1A;domain: 4B and non-annotated extracellular region; Limits derived as for 1544
T7 sequence: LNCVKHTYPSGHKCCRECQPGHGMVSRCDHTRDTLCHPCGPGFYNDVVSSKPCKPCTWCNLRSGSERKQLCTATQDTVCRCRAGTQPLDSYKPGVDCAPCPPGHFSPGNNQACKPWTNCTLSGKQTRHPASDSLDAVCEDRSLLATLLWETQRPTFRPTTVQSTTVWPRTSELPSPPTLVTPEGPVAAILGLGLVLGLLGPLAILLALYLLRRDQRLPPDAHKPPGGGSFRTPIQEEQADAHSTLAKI
The experiment can be described thus: flow cytometry, 293-F transfectants. The method, then:
as §1
On the technique in general: In flow cytometry, cells or beads pass a laser one at a time.

Experiment [9] concerns the target extracellular part of OX40 from Macaca mulatta fused to the transmembrane and intracellular part of hCD40, on … (Macaca mulatta; human, UniProt A0A5F7ZKD5 21-541; P25942 194-277). Briefly: flow cytometry, macOX40-HEK cells; 95% confidence interval. Here is the method: For the assay, the transfected cells were incubated with the test antibodies and controls for 30 min at 4° C. and then detected with a-huIgG-PE (Jackson Immunoresearch) 30 min 4° C. Cells were analyzed by flow cytometry with FACS Verse (BD Biosciences).

Experiment [10] has as its target T4, CD40 (Ancell). The experiment can be described thus: ELISA, coated CD40-Fc. Here is the method: (§2) ELISA plates (Greiner #655074) were coated with 50 μl/well of recombinant human OX40 (R&D #1493-CD), CD40-Fc (Ancell #504-820) or CD137 (R&D #838-4B) diluted to a final concentration of 0.5 μg/ml in PBS for 1 h at 37° C. or overnight at 4° C. Plates were washed with PBS+0.05% TWEEN20 (PBST), followed by block with PBST+1% bovine serum albumin (BSA). Antibody samples were prepared as serial 1/10 dilutions from 10-0.01 μg/ml in PBST+1% BSA and incubated for 1h in room temperature, followed by detection using a horse radish peroxidase-conjugated anti-human kappa light chain antibody (AbD Serotec #STAR127P) and developed using SuperSignal ELISA Pico Chemiluminescent substrate (Pierce ThermoScientific #37069).

Experiment [11] addresses CD137 on primary human CD8+ T cells (human, UniProt Q07011 24-255). The experiment can be described thus: cell-based or functional assay.
Experiment [12] concerns the target T8, Human OX40 (R&D systems, #3358_OX) (human, UniProt P43489 29-216).
T8 construct: Bought; Several catalogue numbers are given for it; also called human OX40 (R&D Systems, 3388-OX); OX40-Fc (R&D systems, #3358_OX); not shown: Fc part
T8 sequence: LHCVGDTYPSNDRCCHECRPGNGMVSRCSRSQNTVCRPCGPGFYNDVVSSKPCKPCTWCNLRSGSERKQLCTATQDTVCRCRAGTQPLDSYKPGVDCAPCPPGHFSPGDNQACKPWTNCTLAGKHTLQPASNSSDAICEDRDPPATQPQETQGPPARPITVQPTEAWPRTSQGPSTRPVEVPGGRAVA
The experiment can be described thus: ELISA, coated recombinant human OX40. The method, then: as §2

T4 sequence (P25942 21-193 limits assumed): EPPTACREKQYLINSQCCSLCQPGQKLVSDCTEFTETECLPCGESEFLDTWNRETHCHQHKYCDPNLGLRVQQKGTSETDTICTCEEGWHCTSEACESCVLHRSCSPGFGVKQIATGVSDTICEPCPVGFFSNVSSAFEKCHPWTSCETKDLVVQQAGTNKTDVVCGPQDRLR
T2 sequence (P16410 38-152 limits assumed): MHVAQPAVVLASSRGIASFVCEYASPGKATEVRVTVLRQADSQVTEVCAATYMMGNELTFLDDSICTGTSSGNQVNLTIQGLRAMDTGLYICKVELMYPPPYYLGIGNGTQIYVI
Sequence of CD137 on primary human CD8+ T cells (Q07011 24-255 limits assumed): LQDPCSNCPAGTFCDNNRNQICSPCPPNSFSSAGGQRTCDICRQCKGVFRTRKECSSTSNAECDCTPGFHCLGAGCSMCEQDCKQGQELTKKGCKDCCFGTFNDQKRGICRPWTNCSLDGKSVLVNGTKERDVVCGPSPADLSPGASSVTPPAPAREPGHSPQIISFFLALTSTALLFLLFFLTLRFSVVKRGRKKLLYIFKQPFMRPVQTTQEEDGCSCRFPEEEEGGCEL
T5 sequence (Q07011 24-186 limits assumed): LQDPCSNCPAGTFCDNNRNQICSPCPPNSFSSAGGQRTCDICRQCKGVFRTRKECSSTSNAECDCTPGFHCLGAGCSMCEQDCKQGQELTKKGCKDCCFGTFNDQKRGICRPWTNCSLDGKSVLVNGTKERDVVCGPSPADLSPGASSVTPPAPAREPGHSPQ
Sequence of extracellular part of OX40 from Macaca mulatta fused to the transmembrane and intracellular part of hCD40, on … (P25942 other isoform, or with tags, fused parts or gaps): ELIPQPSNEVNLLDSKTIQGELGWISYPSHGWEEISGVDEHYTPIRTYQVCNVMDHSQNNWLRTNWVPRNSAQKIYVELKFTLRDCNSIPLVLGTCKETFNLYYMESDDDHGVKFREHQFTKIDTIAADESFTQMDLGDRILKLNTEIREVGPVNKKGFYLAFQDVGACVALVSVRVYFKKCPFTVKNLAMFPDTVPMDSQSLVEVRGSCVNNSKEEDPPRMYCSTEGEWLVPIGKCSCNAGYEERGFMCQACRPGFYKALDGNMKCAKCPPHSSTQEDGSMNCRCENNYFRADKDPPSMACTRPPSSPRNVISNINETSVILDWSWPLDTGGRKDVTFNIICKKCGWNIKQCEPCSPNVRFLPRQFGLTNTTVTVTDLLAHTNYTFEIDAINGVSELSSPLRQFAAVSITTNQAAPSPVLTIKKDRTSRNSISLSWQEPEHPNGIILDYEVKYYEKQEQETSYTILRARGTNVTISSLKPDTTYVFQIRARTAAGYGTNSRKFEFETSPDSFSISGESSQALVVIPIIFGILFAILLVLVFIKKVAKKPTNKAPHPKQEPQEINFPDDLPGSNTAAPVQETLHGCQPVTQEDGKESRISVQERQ

B1: CD86 mutant 915 (ligand)
chain: LKIQAYFNETADLPCQFANSQNQSLSELVVFWQDQENLILNEVYLGKEKFDSVDSKYMGRTSFDSDSWTLRLHNLQIKDKGFYQCIIHHKKPSGLIKIHQMDSELSVLA
notes: Variant of the CD86 extracellular domain
On to B1, for which, in experiment [1], the binding result was “binds”. Also, the “EC50 binding ratio ([EC50 for CD28]/[EC50 for CTLA-4])” value in [2] was 9.9. For the same molecule, the “Kd binding ratio ([Kd for CD28]/[Kd for CTLA-4])” value in experiment [3] turned out to be 1.9.

B2: CD86 mutant 938 (ligand)
chain: LKIQAYFNETADLPCQFANSQNQSLSELVVFWQDQENLILNEVYLGKEKFDSVHSKYMGRTSFDSDSWTLRLHNLQIKDKGIYQCIIHHKKPTGMVKIHQMNSELSVLA
notes: as for B1
For B2, the binding result in experiment [1] is reported as “binds”. In addition, in experiment [2], the “EC50 binding ratio ([EC50 for CD28]/[EC50 for CTLA-4])” value was 2. In addition, in [3], the “Kd binding ratio ([Kd for CD28]/[Kd for CTLA-4])” value was found to be 5.5.

B3: anti-OX40 antibody 1166/1167 (antibody, V domains shown)
VH: EVQLLESGGGLVQPGGSLRLSCAASGFTFGGYYMSWVRQAPGKGLEWVSAISGSGGSTYYADSVKGRFTISRDNSKNTLYLQMNSLRAEDTAVYYCARYDYASMDYWGQGTLVTVSS
VL: DIQMTQSPSSLSASVGDRVTITCRASQSISSYLNWYQQKPGKAPKLLIYAASSLQSGVPSRFSGSGSGTDFTLTISSLQPEDFATYYCQQYYWYGLSTFGQGTKLEIK
notes: Tested as IgG
By EC50 is commonly meant the concentration needed to bring the measured effect to its halfway point. High values mean weaker potency, low ones greater potency. Regarding B3, the binding result in experiment [4], in [5] and in experiment [6] was “no binding” each time. Moreover, the “relative MFI vs isotype control” value in [7] is 15.8; in [8] it was 11.3. In experiment [9], this molecule displayed an EC50 of 0.16 to 0.242 µg/mL.

B4: anti-OX40 antibody 1170/1171 (antibody, V domains shown)
VH: EVQLLESGGGLVQPGGSLRLSCAASGFTFGGYYMSWVRQAPGKGLEWVSYIPGSGGSTYYADSVKGRFTISRDNSKNTLYLQMNSLRAEDTAVYYCARYDYYWMDYWGQGTLVTVSS
VL: DIQMTQSPSSLSASVGDRVTITCRASQSISSYLNWYQQKPGKAPKLLIYAASSLQSGVPSRFSGSGSGTDFTLTISSLQPEDFATYYCQQGHGSYPHTFGQGTKLEIK
notes: Tested as IgG
Take B4: the binding result in experiment [4], in experiment [5] and in [6] was “no binding” in each case. Besides, the “relative MFI vs isotype control” value in experiment [7] was determined as 20.3; in experiment [8] it was 12.1.

B5: anti-CD137 antibody 1214/1215 (antibody, IgG1, V domains shown)
VH: EVQLLESGGGLVQPGGSLRLSCAASGFTFSSYAMSWVRQAPGKGLEWVSSIGSGGGYTGYADSVKGRFTISRDNSKNTLYLQMNSLRAEDTAVYYCARVGHPFDYWGQGTLVTVSS
VL: DIQMTQSPSSLSASVGDRVTITCRASQSISSYLNWYQQKPGKAPKLLIYAASSLQSGVPSRFSGSGSGTDFTLTISSLQPEDFATYYCQQDAYPHTFGQGTKLEIK
notes: Produced as IgG; also called 1214-bio
B5: the binding result in experiment [10] was “no binding (tested: 10 µg/ml)”. In addition, in experiment [11], the “Max IFN-γ” value turned out to be 122000 pg/mL, the “Mean IFN-γ” value was 51800 pg/mL and the “Min IFN-γ” value came out at 8210 pg/mL. For the same molecule, the binding result in experiment [12] is given as “no binding (tested: 10 µg/ml)”.

B6: anti-CD137 antibody 1620/1621 (antibody, IgG1, V domains shown)
VH: EVQLLESGGGLVQPGGSLRLSCAASGFTFSGYYMYWVRQAPGKGLEWVSGISSSGSYTYYADSVKGRFTISRDNSKNTLYLQMNSLRAEDTAVYYCARSVGPYFDYWGQGTLVTVSS
VL: DIQMTQSPSSLSASVGDRVTITCRASQSISSYLNWYQQKPGKAPKLLIYAASSLQSGVPSRFSGSGSGTDFTLTISSLQPEDFATYYCQQGVGPYTFGQGTKLEIK
notes: Produced as IgG
For B6, in experiment [10], the binding result was “no binding (tested: 10 µg/ml)”. Moreover, in experiment [11], the “Max IFN-γ” value stood at 123000 pg/mL, the “Mean IFN-γ” value is 52400 pg/mL and the “Min IFN-γ” value came to 7730 pg/mL. In experiment [12], the binding result is recorded as “no binding (tested: 10 µg/ml)”.

B7: anti-OX40 antibody 1514/1515 (antibody, V domains shown)
VH: EVQLLESGGGLVQPGGSLRLSCAASGFTFGYYYMSWVRQAPGKGLEWVSGISSYGSYTYYADSVKGRFTISRDNSKNTLYLQMNSLRAEDTAVYYCARSGYSNWANSFDYWGQGTLVTVSS
VL: DIQMTQSPSSLSASVGDRVTITCRASQSISSYLNWYQQKPGKAPKLLIYAASSLQSGVPSRFSGSGSGTDFTLTISSLQPEDFATYYCQQGDYTLFTFGQGTKLEIK
notes: Tested as IgG
Turning to B7, the binding result in [4], in experiment [5] and in experiment [6] was “no binding” each time. Also, the “relative MFI vs isotype control” value in experiment [7] amounted to 17.2; in [8] it was 10.6.
